For this assay, the target named is protective antigen, full-length wild type, nicked (nPA) and assembled into oligomers (Bacillus anthracis). Nature of the assay: electron microscopy.

Substance “protective antigen, full-length wild type, nicked (nPA) and assembled into oligomers (natural protein)” showed a fold less octamer with Δ47 LFN than with WT LFN of 10 fold.

(Values after paper PMC3133606.)
